Source: article PMC3180432
pKd: −log10 of the molar value.

Assays:
B7.1-Fc (mouse) = B7.1-Fc (mouse) (UniProt Q00609); assay: SPR; BIAcore 2000, CM5 chip, ligand immobilised by amine coupling, analyte protein injected at different molarities at 10 uL/min, HBS (0.01 M Hepes pH 7.4, 0.15 M NaCl, 0.005% P20), 25°C
B7-H1-Fc (mouse) = B7-H1-Fc (mouse) (UniProt Q9EP73); assay: as above

| Substance | pKd (B7.1-Fc (mouse)) | pKd (B7-H1-Fc (mouse)) |
| --- | --- | --- |
| B7-H1-Fc (from UniProt Q9EP73 19-239) (Fc fusion) | 5.97 |  |
| B7.1-Fc (from UniProt Q00609 38-246) (Fc fusion) |  | 6.42 |
| PD-1-Fc (from UniProt Q02242 25-169) (Fc fusion) |  | 6.09 |
